The text below walks through data of article PMC5974088, “Structural basis for recognition of 53BP1 tandem Tudor domain by TIRR” (Nature Communications, 2018).

The labels stand for the following.
B9: mouse TIRR (6-211) (domain or fragment, M. musculus)
chain: GHMVPELKQISREEAMRLGPGWSHSCHAMLYAANPGQLFGRIPMRFSVLMQMRFDGLLGFPGGFVDRRFWSLEDGLNRVLGLGLGGLRLTEADYLSSHLTEGPHRVVAHLYARQLTLEQLHAVEISAVHSRDHGLEVLGLVRVPLYTQKDRVGGFPNFLSNAFVSTAKYQLLFALKVLNMMPSEKLAEALASATEKQKKALEKLLPPSS
notes: overhang left after TEV cleavage, printed as Gly-His-Met; TIRR (Nudt16L1), M. musculus, residues 6-211; Homodimer by ultracentrifugation and in the crystal; also called Nudt16L1; source: E. coli BL21-Codon PLUS(DE3)-RIPL, purified (Ni-NTA, TEV, heparin, Superdex200); not shown: His6, N-terminal, cleaved

In data set [1] the target is B9. Kind of data set: AUC; sedimentation velocity (20 °C) and sedimentation equilibrium (16 °C); TIRR and 53BP1 Tudor premixed at 2:1 ratio; 20 mM Tris-HCl pH 7.5, 150 mM NaCl. As to conditions: both partners purified.
In data set [2] the target is B9. The data set can be described thus: AUC; sedimentation velocity, 20 °C; TIRR and 53BP1 Tudor assembled in equal molar ratio; 20 mM Tris-HCl pH 7.5, 150 mM NaCl. The settings on record: both partners purified.
For data set [3], the target named is B9. The data set can be described thus: ITC; 200-400 μM 53BP1 Tudor domain (wt or mutant) injected into 200 μl of 22-44 μM TIRR or Nudt16 (wt or mutant); 25 °C; 20 mM Tris-HCl pH 7.5, 150 mM NaCl; single-site binding model. As to conditions: both partners purified. A general note: ITC needs no label: the signal is the heat of the interaction.
The target of data set [4] is T1, human TIRR (6-211) (H. sapiens, UniProt Q9BRJ7 6-211).
T1 construct: overhang left after TEV cleavage, printed as Gly-His-Met; TIRR (Nudt16L1), H. sapiens, residues 6-211; also called Nudt16L1; source: E. coli BL21-Codon PLUS(DE3)-RIPL, purified (Ni-NTA, TEV, heparin, Superdex200); not shown: His6, N-terminal, cleaved
Described as above. The settings on record: both partners purified.

For data set [5], the target named is B9. Described as above. As to conditions: both partners purified. The source holds these as a separate data set.
The target of data set [6] is B9. The description is as above. As to conditions: both partners purified. The source holds these as a separate data set.
Data set [7] deals with the molecule itself. Kind of data set: AUC; TIRR alone; 20 mM Tris-HCl pH 7.5, 150 mM NaCl; dimer.

T1 sequence (Q9BRJ7 other isoform, or with tags, fused parts or gaps): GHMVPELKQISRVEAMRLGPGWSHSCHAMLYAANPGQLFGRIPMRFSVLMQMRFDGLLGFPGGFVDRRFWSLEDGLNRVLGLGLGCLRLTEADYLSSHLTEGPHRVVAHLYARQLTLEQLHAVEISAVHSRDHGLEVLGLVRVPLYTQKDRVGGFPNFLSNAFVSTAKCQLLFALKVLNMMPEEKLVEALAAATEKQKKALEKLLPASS

B1: 53BP1 tandem Tudor domain (1484-1603) (domain or fragment, H. sapiens)
chain: GHMNSFVGLRVVAKWSSNGYFYSGKITRDVGAGKYKLLFDDGYECDVLGKDILLCDPIPLDTEVTALSEDEYFSAGVVKGHRKESGELYYSIEKEGQRKWYKRMAVILSLEQGNRLREQYGLG
notes: overhang left after TEV cleavage, printed as Gly-His-Met; 53BP1 tandem Tudor domain, H. sapiens, residues 1484-1603; also called 53BP1 Tudor; 53BP1-Tudor WT; source: E. coli BL21-Codon PLUS(DE3)-RIPL, purified (Ni-NTA, TEV, Superdex200); not shown: His6, N-terminal, cleaved
What is called stoichiometry N is the number of molecules, sites or subunits per partner or assembly. Usually Kd stands for a measure of binding affinity in units of concentration. Read a low Kd as higher affinity. For the molecule B1, the “stoichiometry N” value is 0.5 53BP1 Tudor per TIRR (printed as TIRR/53BP1 Tudor 2:1) in data set [1], 1 53BP1 Tudor per TIRR (printed as 2:2) in data set [2] and 1 in data set [3]. Further, the Kd in data set [4] and in data set [5] was 0.9 µM in each case.

B2: 53BP1 Tudor W1495A (domain or fragment, H. sapiens)
chain: GHMNSFVGLRVVAKASSNGYFYSGKITRDVGAGKYKLLFDDGYECDVLGKDILLCDPIPLDTEVTALSEDEYFSAGVVKGHRKESGELYYSIEKEGQRKWYKRMAVILSLEQGNRLREQYGLG
notes: overhang left after TEV cleavage, printed as Gly-His-Met; 53BP1 tandem Tudor domain, H. sapiens, residues 1484-1603; source: E. coli BL21-Codon PLUS(DE3)-RIPL, purified as the wt protein; not shown: His6, N-terminal, cleaved
In data set [6], B2 showed a Kd of 15.4 µM.

B3: 53BP1 Tudor L1547A (domain or fragment, H. sapiens)
chain: GHMNSFVGLRVVAKWSSNGYFYSGKITRDVGAGKYKLLFDDGYECDVLGKDILLCDPIPLDTEVTAASEDEYFSAGVVKGHRKESGELYYSIEKEGQRKWYKRMAVILSLEQGNRLREQYGLG
notes: as for B2
The molecule B3 returned a Kd in data set [6] of 4.7 µM.

B4: 53BP1 Tudor L1547G (domain or fragment, H. sapiens)
chain: GHMNSFVGLRVVAKWSSNGYFYSGKITRDVGAGKYKLLFDDGYECDVLGKDILLCDPIPLDTEVTAGSEDEYFSAGVVKGHRKESGELYYSIEKEGQRKWYKRMAVILSLEQGNRLREQYGLG
notes: as for B2
On to B4, for which binding in data set [6] was put at a Kd of 17.3 µM.

B5: 53BP1 Tudor F1553A (domain or fragment, H. sapiens)
chain: GHMNSFVGLRVVAKWSSNGYFYSGKITRDVGAGKYKLLFDDGYECDVLGKDILLCDPIPLDTEVTALSEDEYASAGVVKGHRKESGELYYSIEKEGQRKWYKRMAVILSLEQGNRLREQYGLG
notes: as for B2
On to B5, for which, in data set [6], the dissociation constant Kd was 1.5 µM.

B6: 53BP1 Tudor Y1500A (domain or fragment, H. sapiens)
chain: GHMNSFVGLRVVAKWSSNGAFYSGKITRDVGAGKYKLLFDDGYECDVLGKDILLCDPIPLDTEVTALSEDEYFSAGVVKGHRKESGELYYSIEKEGQRKWYKRMAVILSLEQGNRLREQYGLG
notes: as for B2
On to B6, for which, in data set [6], the Kd worked out at 12.7 µM.

B7: 53BP1 Tudor Y1523A (domain or fragment, H. sapiens)
chain: GHMNSFVGLRVVAKWSSNGYFYSGKITRDVGAGKYKLLFDDGAECDVLGKDILLCDPIPLDTEVTALSEDEYFSAGVVKGHRKESGELYYSIEKEGQRKWYKRMAVILSLEQGNRLREQYGLG
notes: as for B2
As to B7, binding in data set [6] was put at a Kd of 28.5 µM.

B8: 53BP1 Tudor D1521A (domain or fragment, H. sapiens)
chain: GHMNSFVGLRVVAKWSSNGYFYSGKITRDVGAGKYKLLFDAGYECDVLGKDILLCDPIPLDTEVTALSEDEYFSAGVVKGHRKESGELYYSIEKEGQRKWYKRMAVILSLEQGNRLREQYGLG
notes: as for B2
In data set [6], B8 displayed a Kd of 5.4 µM.

Regarding B9, the “stoichiometry N” value in data set [7] came to 2.

B10: 53BP1 Tudor-UDR domain (1484-1631) (domain or fragment, H. sapiens)
chain: GHMNSFVGLRVVAKWSSNGYFYSGKITRDVGAGKYKLLFDDGYECDVLGKDILLCDPIPLDTEVTALSEDEYFSAGVVKGHRKESGELYYSIEKEGQRKWYKRMAVILSLEQGNRLREQYGLGPYEAVTPLTKAADISLDNLVEGKRKRRS
notes: overhang left after TEV cleavage, printed as Gly-His-Met; 53BP1 Tudor-UDR domain, H. sapiens, residues 1484-1631; source: E. coli BL21-Codon PLUS(DE3)-RIPL, purified (Ni-NTA, TEV, Superdex200); not shown: His6, N-terminal, cleaved
Turning to B10, binding in data set [3] was put at a Kd of 0.9 µM.
